Data taken from the Immune Epitope Database (IEDB).
pKd: −log10 of the molar value.

How the values were obtained:
Assay in all cases: IEDB peptide-MHC binding, purified MHC/competitive/radioactivity; filed as Kd, often an IC50 or EC50 that approximates it; ≥ and ≤ were set here for values at or beyond the usual limits of such assays
[1] = molecular target: HLA-A*31:01
[2] = molecular target: HLA-A*33:01
[3] = molecular target: HLA-A*03:01
[4] = molecular target: HLA-A*11:01
[5] = molecular target: HLA-A*68:01
[6] = source organism: Dengue virus 3 Martinique/1243/1999
[7] = source organism: Vaccinia virus WR
[8] = source organism: SARS coronavirus Tor2
[9] = source organism: Lymphocytic choriomeningitis virus (strain Armstrong)
[10] = source organism: Dengue virus 2 Jamaica/1409/1983
[11] = source organism: Mammarenavirus guanaritoense
[12] = source organism: Dengue virus 1 Brazil/97-11/1997
[13] = source organism: Dengue virus 4 Dominica/814669/1981
[14] = source organism: Mammarenavirus machupoense
[15] = source organism: Dengue virus 4 Philippines/H241/1956

Sequence MWSLMYFHR has a pKd [1, 6] of 7.54 and a pKd [2, 6] of 8.87.

PVLKAMHDKK was tested, and the pKd [3, 7] was 5.07, the pKd [4, 7] was no more than 4.61 and the pKd [1, 7] was no more than 4.15. For the same sequence, the pKd [2, 7] was no more than 4.15 and the pKd [5, 7] was no more than 4.15.

PSIFLIITK gave a pKd [3, 7] of 6.78, a pKd [4, 7] of 7.44 and a pKd [1, 7] of 5.03. For the same sequence, the pKd [2, 7] was 4.96 and the pKd [5, 7] was 5.38.

GIADIRDKY was tested, and the pKd [3, 7] was no more than 4.11, the pKd [4, 7] was 5.05 and the pKd [1, 7] was no more than 4.11. It also gave a pKd [2, 7] of no more than 4.11 and a pKd [5, 7] of 5.63.

For SQNPLAELK, the pKd [3, 8] was no more than 4.64, the pKd [4, 8] was 6.51 and the pKd [1, 8] was 5.43. The pKd [2, 8] was no more than 4.32 and the pKd [5, 8] was no more than 4.20.

For ILMKTANNY, the pKd [3, 7] was 6.49, the pKd [4, 7] was 6.54 and the pKd [1, 7] was no more than 4.11. It also gave a pKd [2, 7] of no more than 4.11 and a pKd [5, 7] of no more than 4.68.

EFLHYCNSY gave a pKd [3, 7] of no more than 4.11, a pKd [4, 7] of no more than 4.50 and a pKd [1, 7] of no more than 4.42. The pKd [2, 7] was 5.22 and the pKd [5, 7] was no more than 4.61.

RNPYENILYK was tested, and the pKd [3, 9] was 5.15, the pKd [4, 9] was 5.46 and the pKd [1, 9] was 4.79. It also gave a pKd [2, 9] of no more than 4.42 and a pKd [5, 9] of 5.26.

AQPLPQRQKK showed a pKd [3, 8] of no more than 4.48, a pKd [4, 8] of 5.91 and a pKd [1, 8] of no more than 4.49. The pKd [2, 8] was no more than 4.56 and the pKd [5, 8] was no more than 4.15.

In the case of TAVAKCNVNH, the pKd [3, 9] was no more than 4.15, the pKd [4, 9] was no more than 4.16 and the pKd [1, 9] was no more than 4.15. The pKd [2, 9] was no more than 4.18 and the pKd [5, 9] was no more than 4.19.

Sequence STYGWNLVR has a pKd [3, 10] of 7.20, a pKd [1, 10] of 8.49 and a pKd [2, 10] of 8.54. It also gave a pKd [5, 10] of 8.06.

Work on RLRMDKLQLK yielded a pKd [3, 10] of 8.10.

DWTDGSRGYR was tested, and the pKd [1, 11] was 6.04 and the pKd [2, 11] was 5.93.

CTGKFKIVK was tested, and the pKd [4, 10] was 7.01.

Sequence QIFNEDTSY has a pKd [3, 7] of 5.44, a pKd [4, 7] of 7.14 and a pKd [1, 7] of no more than 4.11. For the same sequence, the pKd [2, 7] was no more than 4.11 and the pKd [5, 7] was 5.20.

In the case of KSIHLTKTDK, the pKd [3, 7] was 6.97, the pKd [4, 7] was 7.70 and the pKd [1, 7] was 6.50. It also gave a pKd [2, 7] of no more than 4.15 and a pKd [5, 7] of 6.38.

In the case of FVSLVKKNKK, the pKd [3, 7] was 5.33, the pKd [4, 7] was 6.63 and the pKd [1, 7] was 6.55. The pKd [2, 7] was 5.03 and the pKd [5, 7] was 7.94.

For ILGGVLHTK, the pKd [3, 7] was 8.72, the pKd [4, 7] was 7.71 and the pKd [1, 7] was 5.86. For the same sequence, the pKd [2, 7] was 5.21 and the pKd [5, 7] was 6.25.

For LTWLGLNSR, the pKd [1, 12] was no more than 4.20 and the pKd [2, 12] was 7.36.

RQVVNVITTK showed a pKd [3, 8] of 6.94, a pKd [4, 8] of 6.67 and a pKd [1, 8] of 5.57. The pKd [2, 8] was no more than 4.40 and the pKd [5, 8] was 6.52.

Work on GLFCLLNRY yielded a pKd [3, 8] of 6.08, a pKd [4, 8] of 5.87 and a pKd [1, 8] of 5.15. The pKd [2, 8] was 4.89 and the pKd [5, 8] was 4.79.

FMALVAFLR gave a pKd [1, 10] of 7.77, a pKd [2, 10] of 7.97 and a pKd [5, 10] of 7.30.

DVSMMSMYGK showed a pKd [3, 7] of 6.83, a pKd [4, 7] of 8.89 and a pKd [1, 7] of 6.64. It also gave a pKd [2, 7] of 6.23 and a pKd [5, 7] of 8.92.

For MLSIINKRK, the pKd [3, 6] was 6.92.

For LFQLCTFTK, the pKd [3, 8] was 6.36, the pKd [4, 8] was 6.72 and the pKd [1, 8] was 6.24. It also gave a pKd [2, 8] of 6.06 and a pKd [5, 8] of 6.24.

Work on VFLRKLTSR yielded a pKd [1, 13] of 7.18 and a pKd [2, 13] of 6.75.

With AAIDRQVSVK the pKd [3, 7] was 6.59, the pKd [4, 7] was 7.97 and the pKd [1, 7] was 4.78. It also gave a pKd [2, 7] of no more than 4.15 and a pKd [5, 7] of 6.16.

With SVKGLTPSK the pKd [3, 8] was 8.12, the pKd [4, 8] was 7.88 and the pKd [1, 8] was 6.77. For the same sequence, the pKd [2, 8] was 5.03 and the pKd [5, 8] was 6.74.

With SQLAKRFSR the pKd ([1]; source organism: Dengue virus 3 Singapore/8120/1995) was 8.68.

WFFNNYLRK gave a pKd [3, 8] of 6.39, a pKd [4, 8] of 7.09 and a pKd [1, 8] of 5.41. For the same sequence, the pKd [2, 8] was 6.05 and the pKd [5, 8] was 6.41.

For DSVKSILKWH, the pKd [3, 14] was no more than 4.15, the pKd [4, 14] was no more than 4.16 and the pKd [1, 14] was 5.58. The pKd [2, 14] was no more than 4.48 and the pKd [5, 14] was no more than 4.15.

With ISRTRLYDY the pKd [3, 7] was 6.75, the pKd [4, 7] was 5.85 and the pKd [1, 7] was 5.91. It also gave a pKd [2, 7] of 5.66 and a pKd [5, 7] of no more than 4.37.

TTLSLDYAWK showed a pKd [4, 12] of 7.10 and a pKd [5, 12] of 7.86.

Work on YMPSMKRFR yielded a pKd [1, 10] of 7.00 and a pKd [2, 10] of 8.12.

In the case of ASLPTYLSSR, the pKd [1, 15] was 8.12.

For DLPVWLAYR, the pKd [2, 10] was 8.40.

In the case of YVSAIAQTEK, the pKd [4, 10] was 6.51 and the pKd [5, 10] was 7.62.

LLSGQGPMK showed a pKd [3, 12] of 7.40.

VVVGAGGVGK gave a pKd ([3]; source organism: Homo sapiens) of 7.09 and a pKd ([4]; source organism: Homo sapiens) of 7.91.

Sequence MGYWIESSK has a pKd [3, 15] of 7.08.

Work on VSLLGSALLK yielded a pKd [3, 15] of 7.60 and a pKd [4, 15] of 7.34.

EAKQPATLR was tested, and the pKd [2, 10] was 8.00 and the pKd [5, 10] was 7.13.

GVCGIRSATR was tested, and the pKd [1, 12] was no more than 4.15 and the pKd [5, 12] was 5.73.

Work on IMQAGKRSLR yielded a pKd [1, 10] of 8.24 and a pKd [2, 10] of 6.66.

KAINVLRGFR gave a pKd [1, 10] of 9.08.

For SMLNIMNRRK, the pKd [3, 12] was 7.30.

Sequence HVQTKPGLFK has a pKd [3, 15] of 8.07 and a pKd [4, 15] of 6.41.

NTSVDLYAR was tested, and the pKd [4, 11] was 5.66.

Work on KMVEPWLSSK yielded a pKd [3, 15] of 7.94.

Work on EMGANFKADR yielded a pKd [2, 6] of 5.81.

ALLALNDMGK showed a pKd [3, 6] of 7.55 and a pKd [4, 6] of 6.71.

In the case of LINRFTMRHK, the pKd ([3]; source organism: Dengue virus 2 Peru/IQT2913/1996) was 7.85.

Sequence FTTRLLSSTR has a pKd [2, 15] of 7.07 and a pKd [5, 15] of 7.59.
